Experimental data: patent US20120178908A1 (Novo Nordisk, published 2012)
* marks the point of attachment. Biotin = O=C1N[C@H]2[C@H](CS[C@H]2CCCCC(=O)*)N1; AEEA = NCCOCCOCC(=O)O

Tests used:
[1] = target: T1, TLT1 (human TLT-1, reagent of the SPR studies, source NN) (human, UniProt Q86YW5 16-162, limits assumed); assay: SPR (Biacore), mAb captured via anti-human Fc mAb, TLT1 as analyte
T1 sequence: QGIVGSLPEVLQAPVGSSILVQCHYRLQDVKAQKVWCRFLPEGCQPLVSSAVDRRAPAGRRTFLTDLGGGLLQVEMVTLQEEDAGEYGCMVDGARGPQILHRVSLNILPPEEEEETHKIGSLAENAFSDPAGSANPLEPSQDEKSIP
Procedure: The mAbs of interest were either immobilized directly to a CM5 chip or by capture via a human Fc capture mAb immobilized to a CM5 chip.
Capture via human Fc mAb: Human Fc mAb was immobilised to approx 10.000 RU. The mAb of interest was added (approx 100 nM). Two-fold dilutions of TLT1 from 200 nM to 0.2 nM were tested. Running and dilution buffer: 10 mM HEPES, 150 mM, 0.005% p20, pH 7.4. Regeneration was obtained in 3 M MgCl₂

[2] = target: T2, biotinylated 20mer TLT-1 stalk peptide 13 (N-terminal biotin via 8-amino-3,6-dioxaoctanoic acid (bio-Oeg)); assay: peptide-walk ELISA, biotin-peptide on streptavidin plate, triple determination
T2 construct: also called well B 1
T2 peptide: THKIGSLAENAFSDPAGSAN
Procedure: (§1) Epitope mapping by peptide walk. The peptide walking ELISA defined the minimal binding region of the peptide. This was established by coating biotinylated peptides with one residue frameshift in the stalk region of TLT-1 in streptavidin plates followed by binding of the antibody of interest (mAb 0061). A secondary antibody was added for detection and binding was measured at 450 nm. Positive control: binding to biotinylated TLT-1.
(§2) 1) 20mer peptide mapping with one residue frameshift (20,1) (see materials) 2) 16mer peptide mapping with one residue frameshift (16,1) (see materials) [0687] 1. Plate was prre-washed 3× with 250 μl wash buffer [0688] 2. 100 μl Biotinylated peptide-solution was added (from Masterplate 10000× diluted, one peptide pr well) [0689] 3. Incubated at RT for 1 hour or +5° C. over night [0690] 4. Washed 3× with wash buffer [0691] 5. 100 μl Primary antibody was added (dilution see above) [0692] 6. Incubated at RT for 1 hour [0693] 7. Washed 3× with wash buffer [0694] 8. 100 μl Secondary antibody was added (dilution see above) [0695] 9. Incubated at RT for 1 hour [0696] 10. Washed 3× with wash buffer [0697] 11. 100 μl Substrate/Develop buffer was added (Reaction time 3 min) [0698] 12. 100 μl 2M H3PO4 was added [0699] 13. Endpoint was read at 450 nm

[3] = target: T3, biotinylated 20mer TLT-1 stalk peptide 16 (N-terminal biotin via 8-amino-3,6-dioxaoctanoic acid (bio-Oeg)); assay: as above
T3 construct: also called well B 4
T3 peptide: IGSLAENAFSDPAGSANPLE
Procedure: as §1, §2

[4] = target: T4, biotinylated 20mer TLT-1 stalk peptide 6 (N-terminal biotin via 8-amino-3,6-dioxaoctanoic acid (bio-Oeg)); assay: as above
T4 construct: also called well A 6
T4 peptide: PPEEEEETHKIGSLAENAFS
Procedure: as §1, §2

[5] = target: T5, biotinylated 16mer hTLT-1 stalk peptide 41 (SMILES …); assay: as above
T5 construct: also called well D 5
T5 peptide: {Biotin-AEEA}-HKIGSLAENAFSDPAG-NH2
Procedure: as §1, §2

[6] = target: T6, biotinylated 20mer TLT-1 stalk peptide 14 (N-terminal biotin via 8-amino-3,6-dioxaoctanoic acid (bio-Oeg)); assay: as above
T6 construct: also called well B 2
T6 peptide: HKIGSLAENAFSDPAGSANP
Procedure: as §1, §2

[7] = target: T7, biotinylated 20mer TLT-1 stalk peptide 15 (N-terminal biotin via 8-amino-3,6-dioxaoctanoic acid (bio-Oeg)); assay: as above
T7 construct: also called well B 3
T7 peptide: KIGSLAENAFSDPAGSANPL
Procedure: as §1, §2

[8] = target: T8, biotinylated 20mer TLT-1 stalk peptide 8 (N-terminal biotin via 8-amino-3,6-dioxaoctanoic acid (bio-Oeg)); assay: as above
T8 construct: also called well A 8
T8 peptide: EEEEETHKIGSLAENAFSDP
Procedure: as §1, §2

[9] = target: T9, biotinylated 16mer hTLT-1 stalk peptide 39 (SMILES …); assay: as above
T9 construct: also called well D 3
T9 peptide: {Biotin-AEEA}-ETHKIGSLAENAFSDP-NH2
Procedure: as §1, §2

[10] = target: T10, biotinylated 16mer hTLT-1 stalk peptide 38 (SMILES …); assay: as above
T10 construct: also called well D 2
T10 peptide: {Biotin-AEEA}-EETHKIGSLAENAFSD-NH2
Procedure: as §1, §2

[11] = target: T11, biotinylated 20mer TLT-1 stalk peptide 7 (N-terminal biotin via 8-amino-3,6-dioxaoctanoic acid (bio-Oeg)); assay: as above
T11 construct: also called well A 7
T11 peptide: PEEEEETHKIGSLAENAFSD
Procedure: as §1, §2

[12] = target: T12, biotinylated 16mer hTLT-1 stalk peptide 37 (SMILES …); assay: as above
T12 construct: also called well D 1
T12 peptide: {Biotin-AEEA}-EEETHKIGSLAENAFS-NH2
Procedure: as §1, §2

[13] = target: T13, biotinylated 20mer TLT-1 stalk peptide 9 (N-terminal biotin via 8-amino-3,6-dioxaoctanoic acid (bio-Oeg)); assay: as above
T13 construct: also called well A 9
T13 peptide: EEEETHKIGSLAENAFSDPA
Procedure: as §1, §2

[14] = target: T14, biotinylated 16mer hTLT-1 stalk peptide 36 (SMILES …); assay: as above
T14 construct: also called well C12
T14 peptide: {Biotin-AEEA}-EEEETHKIGSLAENAF-NH2
Procedure: as §1, §2

[15] = target: T15, biotinylated 20mer TLT-1 stalk peptide 11 (N-terminal biotin via 8-amino-3,6-dioxaoctanoic acid (bio-Oeg)); assay: as above
T15 construct: also called well A11
T15 peptide: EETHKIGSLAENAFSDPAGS
Procedure: as §1, §2

[16] = target: T16, biotinylated 16mer hTLT-1 stalk peptide 40 (SMILES …); assay: as above
T16 construct: also called well D 4
T16 peptide: {Biotin-AEEA}-THKIGSLAENAFSDPA-NH2
Procedure: as §1, §2

[17] = target: T17, biotinylated 20mer TLT-1 stalk peptide 10 (N-terminal biotin via 8-amino-3,6-dioxaoctanoic acid (bio-Oeg)); assay: as above
T17 construct: also called well A10
T17 peptide: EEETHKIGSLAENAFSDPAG
Procedure: as §1, §2

B1: mAb 0061 HC2; LC2 (antibody, V domains shown)
VH: EVKLLESGGGLVQPGGSLKLSCAASGFDFSRYWMTWVRQAPGKGLEWIGEINPDSSTINYNPSLKDKFIISRDNAKNTLYLQMSEVRSEDTALYYCASGVFTSWGQGTLVTVSA
VL: DVVMTQTPLSLPVSLGDQASISCRSSQSLVHRNGNTYFHWALQKPGQSPKLLIYKVSNRFSGVPDRFSGSGSGTDFTLKISRVEAEDLGVYFCSQSTHVPYTFGGGTKLEIKR
notes: also called 0197-0000-0061; 0012HC.T60N + 0012LC.C36A
932000 M⁻¹ s⁻¹: kon [1]
0.0035 s⁻¹: koff [1]
3.75 nM: Kd [1]
> 3 A450: absorbance at 450 nm [2] | absorbance at 450 nm [3] | absorbance at 450 nm [4] | absorbance at 450 nm [5] | absorbance at 450 nm [6] | absorbance at 450 nm [7] | absorbance at 450 nm [8] | absorbance at 450 nm [9] | absorbance at 450 nm [10] | absorbance at 450 nm [11] | absorbance at 450 nm [12] | absorbance at 450 nm [13] | absorbance at 450 nm [14] | absorbance at 450 nm [15] | absorbance at 450 nm [16] | absorbance at 450 nm [17]
